In this test the target is winged-helix domain 32C of human RPA (residues 172-270 of RPA2) (human, UniProt P15927 172-270). The test can be described thus: NMR titration.
Sequence of winged-helix domain 32C of human RPA (residues 172-270 of RPA2) (P15927 172-270): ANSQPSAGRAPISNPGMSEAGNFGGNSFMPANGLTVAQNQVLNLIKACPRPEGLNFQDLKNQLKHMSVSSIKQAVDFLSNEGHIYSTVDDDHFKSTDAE

B1: harmonin homology domain 2 (HHD2) of human RTEL1, residues 1056-1140 (domain or fragment)
chain: GQHAVSAYLADARRALGSAGCSQLLAALTAYKQDDDLDKVLAVLAALTTAKPEDFPLLHRFSMFVRPHHKQRFSQTCTDLTGRPY
On to B1, for which the binding result is given as “binds”.
